Data: article PMC6202311, “Substrate Recognition and Autoinhibition in the Central Ribonuclease RNase E” (Molecular Cell, 2018)

Legend:
[1] = target: the molecule itself; test: crystal structure; RNase E (1-529) D303R, D346R co-crystallised with 5' monophosphorylated MicC-ompD fusion RNA (1:1 molar ratio); 3.0 Å, space group C2; open-state quaternary structure
[2] = target: the molecule itself; test: crystal structure; RNase E (1-510) D303R, D346R co-crystallised with full-length sRNA RprA; 3.95 Å, space group P6(1); 0.1 M KCl, 0.01 M MgCl2, 0.05 M Tris-HCl pH 8.5, 30% PEG 400, 20°C; tetramer as a dimer of dimers

| Protein | binding result [1] | stoichiometry N [2] |
| --- | --- | --- |
| RNase E (1–529) D303R, D346R (domain or fragment, Crystallised with a 5' monophosphorylated MicC-ompD fusion RNA; Prepared as in Callaghan et al., 2005; cloned in pET16; source: E. coli BL21(DE3), purified (nickel HiTrap Chelating, optional heparin or butyl Sepharose, gel filtration)) not shown | binds |  |
| RNase E (1–510) D303R, D346R (domain or fragment, Crystallised with full-length sRNA RprA; also called RNase E (1–511); source: E. coli BL21(DE3), purified (nickel HiTrap Chelating, optional heparin or butyl Sepharose, gel filtration)) not shown |  | 4 |
